This note sets out measurements from patent publication US20250282881A1 (SHANGHAI EPIMAB BIOTHERAPEUTICS, published 2025).

What is called EC50 (read off the curve) is the concentration giving half of the maximal effect. Low values mean an effect from little substance, high ones a need for much substance. What is called Kd is the equilibrium constant for the complex coming apart. The term koff denotes a measure of how fast the partners let go of each other. One may read the kon as the rate constant with which the complex forms.

The target in test [1] is T1, human PD-L1 on cells (CHO-PD-L1, CHO-PD-L1-OS8) (human, UniProt Q9NZQ7 19-290).
T1 construct: whole, on cells; also called PD-L1 over-expressing cells; CD274
The test can be described thus: FACS on CHO-PD-L1 cells, Alexa Fluor 647 anti-human IgG, MFI. As for the experimental part:
Cell binding affinity of PD-L1/OX40 antibodies were measured against CHO (ATCC, #CCL-61) overexpressing human PD-L1 (CHO-PD-L1) and CHO overexpressing OX40 (CHO-OX40), respectively. Briefly, 5×10⁵ cells were seeded into each well of a 96-well plate (Corning, #3799). Cells were centrifuged at 400 g for 5 minutes and supernatants were discarded. For each well, 100 μl of 3× serial dilution of antibodies starting from 100 nM were then added and mixed with the cells. After 60 minutes of 4° C. incubation, plates were washed several times to remove excess antibodies. […] After another round of centrifugation and washing, cells were resuspended in FACS buffer for reading on a CytoFLEX Flow Cytometer (Beckman Coulter). Median Fluorescence Intensity (MFI) readouts were plotted against antibody concentration and analyzed with GraphPad Prism 8.0.

Test [2] concerns the target T1, human PD-L1 on cells (CHO-PD-L1, …). Briefly: cell-based receptor blocking assay, FACS: antibody against PD-1-mFc binding to CHO-PD-L1 cells, anti-mouse IgG detection. As for the experimental part: Blocking of PD-1/PD-L1 binding was assessed in a cell based receptor blocking assay (RBA), 100 μl of 2×10⁵ cells/well of CHO-PD-L1 cells were added to a 96-well round-bottomed plate (Corning, Cat #3799), 50 μl serial diluted of antibody at 0.016 nM to 50 nM and 50 μl of 50 μg/ml PD-1-mFc (Novoprotein, #C754) were added to each well, mixed gently then incubated at 4° C. for 1 hour. The cells were washed and stained by Alexa Fluor® 647 anti-mouse IgG (1:500, Jackson ImmunoResearch, #115-606-008). Signals were read out by FACS and curves were fitted by GraphPad Prism 8.0.

In test [3] the target is Cyno OX40 (protein analyte in BLI, Table 10) (cyno). Briefly: BLI (Octet Red96), FIT1014-20a on AHC sensor, cyno OX40 as analyte. (Biolayer interferometry detects binding as a change in optical thickness at a sensor tip.)
The target in test [4] is recombinant cyno PD-L1-his protein (cyno, UniProt G7PSE7 19-239). Briefly: BLI (Octet Red96), FIT1014-20a on AHC sensor, cyno PD-L1-his as analyte. As for the experimental part: (§1) The PD-L1 binding activities of FIT1014-20a were detected by biolayer interferometry using an Octet® Red sensing device (ForteBio, Red96). […] The association and dissociation curves were fitted to a 1:1 Langmuir binding model using FortéBio Data Analysis software (Pall) to produce kinetic rate constants Kon and Koff. The equilibrium dissociation constant KD (M) of the reaction between antibodies and related target proteins was then calculated by KD=koff/kon.

Test [5] concerns the target T2, recombinant human PD-L1/His fusion protein (Novoprotein, Cat. No. C315) (human, UniProt Q9NZQ7 19-239).
T2 construct: also called recombinant human PD-L1-his protein
Briefly: BLI (Octet Red96), FIT1014-20a on AHC sensor, human PD-L1-his as analyte. As for the experimental part:
as §1

T1 sequence (Q9NZQ7 19-290): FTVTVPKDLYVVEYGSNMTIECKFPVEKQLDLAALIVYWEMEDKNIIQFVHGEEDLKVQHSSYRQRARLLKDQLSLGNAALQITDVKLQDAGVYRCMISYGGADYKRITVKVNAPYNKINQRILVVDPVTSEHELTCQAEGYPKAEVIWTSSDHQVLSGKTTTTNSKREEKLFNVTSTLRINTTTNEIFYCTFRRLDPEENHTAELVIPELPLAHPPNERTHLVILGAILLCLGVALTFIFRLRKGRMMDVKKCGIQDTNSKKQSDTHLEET
T2 sequence (Q9NZQ7 19-239 limits assumed): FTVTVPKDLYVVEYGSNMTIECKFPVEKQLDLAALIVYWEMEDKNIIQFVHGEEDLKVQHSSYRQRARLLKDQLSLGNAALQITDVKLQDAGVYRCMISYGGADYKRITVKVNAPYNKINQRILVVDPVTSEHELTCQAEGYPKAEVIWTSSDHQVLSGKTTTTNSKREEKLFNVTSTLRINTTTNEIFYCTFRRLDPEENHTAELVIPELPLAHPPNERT
Chain of recombinant cyno PD-L1-his protein (G7PSE7 entry or part of it): as the sequence (Q9NZQ7 19-239 limits assumed) above, with A33T, A34S, S62N, R68Q, Q82R, F173L, T185A, T192I, H215L counted along it

B1: HuEM0005-86-64 (antibody, human IgG1, kappa, L234A L235A, V domains shown)
VH: EVQLVQSGSELKKPGASVKVSCKASGYTFTTYGINWVRQAPGQGLEWMGYIYIGNAYTEYNEKFKGRFVFSLDTSVSTAYLQISSLKAEDTAVYYCARDLMVIAPKTMDYWGQGTTVTVSS
VL: DIQMTQSPSSVSASVGDRVTITCKASQDVGTAVAWYQQKPGKAPKLLIYWASTRHTGVPSRFSGSGSGTDFTLTISSLQPEDFATYYCQQYSSYPYTFGGGTKVEIKR
notes: Humanized anti-PD-L1; same as HuEM0005-86-21 except Q1E and C82aS (Kabat) in VH; also called parental anti-PD-L1 monoclonal antibody; parental PD-L1 antibody
On to B1, for which the “EC50 (read off the curve)” value in test [1] is ~0.8 nM. The “IC50 (read off the curve)” value in test [2] was ~0.8 nM.

B2: FIT1014-20a (bispecific antibody, human IgG1, kappa, L234A L235A)
chain 1: DIQMTQSPSSVSASVGDRVTITCKASQDVGTAVAWYQQKPGKAPKLLIYWASTRHTGVPSRFSGSGSGTDFTLTISSLQPEDFATYYCQQYSSYPYTFGGGTKVEIKRTVAAPSVFIFPPSDEQLKSGTASVVCLLNNFYPREAKVQWKVDNALQSGNSQESVTEQDSKDSTYSLSSTLTLSKADYEKHKVYACEVTHQGLSSPVTKSFNRGECEVQLQQSGAEVKKPGSSVKVSCKASGHAFSSSWMNWVKQRPGKGLEWIGRIYPGDEITNYNAKFKDKATLTADKSTSTAYMELSSLRSEDTAVYYCARDLLMPYWGQGTLVTVSSASTKGPSVFPLAPSSKSTSGGTAALGCLVKDYFPEPVTVSWNSGALTSGVHTFPAVLQSSGLYSLSSVVTVPSSSLGTQTYICNVNHKPSNTKVDKKVEPKSCDKTHTCPPCPAPEAAGGPSVFLFPPKPKDTLYITREPEVTCVVVDVSHEDPEVKFNWYVDGVEVHNAKTKPREEQYNSTYRVVSVLTVLHQDWLNGKEYKCKVSNKALPAPIEKTISKAKGQPREPQVYTLPPSREEMTKNQVSLTCLVKGFYPSDIAVEWESNGQPENNYKTTPPVLDSDGSFFLYSKLTVDKSRWQQGNVFSCSVMHEALHNHYTQKSLSLSPGK
chain 2: EVQLVQSGSELKKPGASVKVSCKASGYTFTTYGINWVRQAPGQGLEWMGYIYIGNAYTEYNEKFKGRFVFSLDTSVSTAYLQISSLKAEDTAVYYCARDLMVIAPKTMDYWGQGTTVTVSSASTKGPSVFPLAPSSKSTSGGTAALGCLVKDYFPEPVTVSWNSGALTSGVHTFPAVLQSSGLYSLSSVVTVPSSSLGTQTYICNVNHKPSNTKVDKKVEPKSC
chain 3: DIVMTQTPLSLPVTPGEPASISCRSSKSLLYSNAITYLYWYLQKPGQSPQLLIYQMSNLAPGVPDRFSSSGSGTDFTLKISRVEAEDVGVYYCAQNLELPFTFGQGTKLEIKRTVAAPSVFIFPPSDEQLKSGTASVVCLLNNFYPREAKVQWKVDNALQSGNSQESVTEQDSKDSTYSLSSTLTLSKADYEKHKVYACEVTHQGLSSPVTKSFNRGEC
notes: Hexamer of three component polypeptide chains (two of each); outer Fab anti-PD-L1 (HuEM0005-86-64), inner Fab anti-OX40 (HuEM1007-44-16); also called FIT1014-20a (YTE); PD-L1/OX40 FIT-Ig
In test [3], B2 had a Kd of 5.13 nM, a koff of 0.0004 s⁻¹ and a kon of 78000 M⁻¹ s⁻¹. For the same molecule, the “EC50 (read off the curve)” value in test [1] was ~1 nM. In test [4], the Kd worked out at 0.587 nM, the koff was 0.000276 s⁻¹ and the kon was 470000 M⁻¹ s⁻¹. In addition, in test [5], the Kd amounted to 0.255 nM, the off-rate constant (koff) stood at 0.000158 s⁻¹ and the kon is 620000 M⁻¹ s⁻¹. In addition, the “IC50 (read off the curve)” value in test [2] was ~0.8 nM.
